Reference: article PMC12603982 (Angewandte Chemie (International Ed. in English), 2025)
Positions of bridges follow the written chain, without caps; N, C: chain ends. Non-standard residues stand in square brackets, D forms with d. Groups on a side chain read outwards from the residue. Primed or numbered codes have the meaning given here. No end group written: not given here. εdLys = D-Lys linked through its epsilon amine (k^ε); PEG5′ = PEG5 spacer, as named in the construct; Cy3s = Cy3s fluorophore, as named; Cy5s = Cy5s fluorophore, as named; Orn = NCCC[C@H](N)C(=O)O; Mpa = O=C(O)CCS

T1: human oxytocin receptor (hOTR) (human, UniProt P30559 1-389)
T1 construct: oxytocin receptor, human; in membrane preparations or on cells; constructs are in the Supporting Information; source: HEK293, stably expressing; membrane preparations (radioligand assay); free-floating cells (FACS)
T1 sequence (looked up): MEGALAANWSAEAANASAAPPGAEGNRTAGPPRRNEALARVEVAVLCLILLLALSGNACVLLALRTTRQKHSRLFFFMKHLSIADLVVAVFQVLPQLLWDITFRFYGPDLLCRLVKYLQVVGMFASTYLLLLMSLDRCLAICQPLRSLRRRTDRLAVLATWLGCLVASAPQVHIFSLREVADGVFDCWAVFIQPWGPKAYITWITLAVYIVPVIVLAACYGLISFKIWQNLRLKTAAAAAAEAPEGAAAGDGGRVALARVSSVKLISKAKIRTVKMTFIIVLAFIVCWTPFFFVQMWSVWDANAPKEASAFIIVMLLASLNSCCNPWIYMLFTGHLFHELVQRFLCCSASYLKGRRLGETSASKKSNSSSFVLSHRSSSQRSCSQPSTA

T2: human vasopressin V1b receptor (hV1bR) (human, UniProt P47901 1-424)
T2 construct: vasopressin V1b receptor, human; in membrane preparations; source: HEK293, stably expressing; membrane preparations
T2 sequence (looked up): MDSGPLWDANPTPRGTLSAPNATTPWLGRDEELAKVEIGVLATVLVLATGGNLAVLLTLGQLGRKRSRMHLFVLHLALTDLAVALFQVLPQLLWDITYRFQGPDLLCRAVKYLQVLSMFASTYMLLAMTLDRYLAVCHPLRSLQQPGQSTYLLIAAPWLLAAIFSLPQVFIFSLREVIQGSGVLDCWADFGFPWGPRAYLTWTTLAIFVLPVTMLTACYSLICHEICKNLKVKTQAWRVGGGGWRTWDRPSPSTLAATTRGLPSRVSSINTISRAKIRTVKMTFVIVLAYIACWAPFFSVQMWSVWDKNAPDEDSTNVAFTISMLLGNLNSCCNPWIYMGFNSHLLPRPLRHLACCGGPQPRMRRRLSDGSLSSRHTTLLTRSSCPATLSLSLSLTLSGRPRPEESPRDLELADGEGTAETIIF

T3: murine oxytocin receptor (mOTR) (murine, UniProt P97926 1-388)
T3 construct: oxytocin receptor, murine; in membrane preparations; source: HEK293, transiently expressing; membrane preparations
T3 sequence (looked up): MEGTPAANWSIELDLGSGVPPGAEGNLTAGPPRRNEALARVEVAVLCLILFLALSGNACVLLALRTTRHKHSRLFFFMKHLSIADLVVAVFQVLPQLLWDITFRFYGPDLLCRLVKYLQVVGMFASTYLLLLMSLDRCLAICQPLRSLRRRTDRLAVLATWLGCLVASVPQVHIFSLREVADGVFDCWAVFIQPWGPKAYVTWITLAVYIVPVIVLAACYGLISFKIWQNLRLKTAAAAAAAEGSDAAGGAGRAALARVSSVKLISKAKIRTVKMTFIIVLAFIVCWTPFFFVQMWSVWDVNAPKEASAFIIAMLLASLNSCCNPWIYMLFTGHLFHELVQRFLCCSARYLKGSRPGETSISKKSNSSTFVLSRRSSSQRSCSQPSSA

T4: murine vasopressin V1b receptor (mV1bR) (murine, UniProt Q9WU02 1-421)
T4 construct: vasopressin V1b receptor, murine; in membrane preparations; source: HEK293, transiently expressing; membrane preparations
T4 sequence (looked up): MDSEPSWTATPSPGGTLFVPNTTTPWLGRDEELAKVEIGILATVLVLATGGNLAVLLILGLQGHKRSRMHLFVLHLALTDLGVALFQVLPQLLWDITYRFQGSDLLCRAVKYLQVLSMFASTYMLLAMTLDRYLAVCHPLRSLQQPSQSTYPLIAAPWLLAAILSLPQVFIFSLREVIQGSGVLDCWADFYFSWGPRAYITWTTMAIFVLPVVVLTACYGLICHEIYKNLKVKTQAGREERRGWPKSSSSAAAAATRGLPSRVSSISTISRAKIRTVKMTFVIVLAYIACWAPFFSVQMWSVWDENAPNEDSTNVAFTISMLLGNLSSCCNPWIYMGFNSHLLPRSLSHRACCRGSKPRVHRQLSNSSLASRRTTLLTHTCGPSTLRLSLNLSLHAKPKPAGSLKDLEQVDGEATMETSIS

B1: Oxytocin (OT) (peptide)
peptide: CYIQNCPLG
notes: oxytocin, endogenous nonapeptide ligand of OTR; numbers count on: the mature nonapeptide
B2: Vasopressin (VP) (peptide)
peptide: CYFQNCPRG
notes: vasopressin (arginine at position 8), endogenous nonapeptide; numbers count on: the mature nonapeptide

Key:
Settings in all cases: one partner purified
[1] = biological target: T1, human oxytocin receptor (hOTR); assay: radioligand binding; displacement of [3H]-OT or [3H]-VP from membrane preparations of HEK293 cells stably expressing the human receptor; dose-response curves in duplicates, at least three independent experiments; Ki >10 µM assigned where <25% of the radioligand was displaced at 10 µM
[2] = biological target: T5, human vasopressin V1a receptor (hV1aR) (human, UniProt P37288 1-418); assay: as above
T5 construct: vasopressin V1a receptor, human; in membrane preparations; source: HEK293, stably expressing; membrane preparations
T5 sequence (P37288 whole entry): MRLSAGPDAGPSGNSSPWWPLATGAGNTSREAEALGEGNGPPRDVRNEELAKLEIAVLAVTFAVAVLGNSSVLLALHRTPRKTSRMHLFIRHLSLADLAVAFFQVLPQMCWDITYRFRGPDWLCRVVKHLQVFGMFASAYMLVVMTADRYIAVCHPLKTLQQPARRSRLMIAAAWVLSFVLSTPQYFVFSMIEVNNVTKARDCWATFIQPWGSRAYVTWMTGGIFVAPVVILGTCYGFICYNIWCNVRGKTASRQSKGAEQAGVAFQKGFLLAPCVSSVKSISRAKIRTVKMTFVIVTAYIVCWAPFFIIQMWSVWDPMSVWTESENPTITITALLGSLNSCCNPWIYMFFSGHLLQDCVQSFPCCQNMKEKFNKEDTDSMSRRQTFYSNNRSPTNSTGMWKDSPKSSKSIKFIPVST

[3] = biological target: T2, human vasopressin V1b receptor (hV1bR); assay: as above
[4] = biological target: T3, murine oxytocin receptor (mOTR); assay: radioligand binding; displacement of [3H]-OT or [3H]-VP from membrane preparations of HEK293 cells transiently expressing the murine receptor; dose-response curves in duplicates, at least three independent experiments; Ki >10 µM assigned where <25% of the radioligand was displaced at 10 µM
[5] = biological target: T6, murine vasopressin V1a receptor (mV1aR) (murine, UniProt Q62463 1-423); assay: as above
T6 construct: vasopressin V1a receptor, murine; in membrane preparations; source: HEK293, transiently expressing; membrane preparations
T6 sequence (Q62463 whole entry): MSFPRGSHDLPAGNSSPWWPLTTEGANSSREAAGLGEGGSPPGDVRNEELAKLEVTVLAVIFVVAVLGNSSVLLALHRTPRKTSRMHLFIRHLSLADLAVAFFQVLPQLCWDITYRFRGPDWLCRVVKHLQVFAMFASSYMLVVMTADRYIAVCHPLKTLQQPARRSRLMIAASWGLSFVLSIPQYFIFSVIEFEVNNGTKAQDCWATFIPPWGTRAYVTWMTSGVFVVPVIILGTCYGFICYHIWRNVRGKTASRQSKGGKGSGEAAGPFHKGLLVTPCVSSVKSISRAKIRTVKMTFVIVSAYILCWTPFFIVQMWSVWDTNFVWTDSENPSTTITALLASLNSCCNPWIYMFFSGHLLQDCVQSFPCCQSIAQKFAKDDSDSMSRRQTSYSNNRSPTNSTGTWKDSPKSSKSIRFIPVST

[6] = biological target: T4, murine vasopressin V1b receptor (mV1bR); assay: as above
[7] = biological target: T7, murine vasopressin V2 receptor (mV2R) (murine, UniProt O88721 1-371); assay: as above
T7 construct: vasopressin V2 receptor, murine; in membrane preparations; source: HEK293, transiently expressing; membrane preparations
T7 sequence (O88721 whole entry): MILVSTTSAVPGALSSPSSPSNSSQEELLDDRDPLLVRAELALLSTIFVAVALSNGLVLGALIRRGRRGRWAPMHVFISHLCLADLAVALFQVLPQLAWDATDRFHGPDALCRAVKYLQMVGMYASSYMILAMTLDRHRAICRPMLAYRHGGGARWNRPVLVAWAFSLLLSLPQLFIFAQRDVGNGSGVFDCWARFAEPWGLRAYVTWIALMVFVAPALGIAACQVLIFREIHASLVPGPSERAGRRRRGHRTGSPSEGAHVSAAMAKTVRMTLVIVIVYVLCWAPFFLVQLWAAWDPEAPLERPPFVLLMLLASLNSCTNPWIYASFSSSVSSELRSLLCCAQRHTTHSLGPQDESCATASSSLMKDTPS

| Binder | Ki [1] [nM] | Ki [2] [nM] | Ki [3] [nM] | Ki [4] [nM] | Ki [5] [nM] | Ki [6] [nM] | Ki [7] [nM] |
| --- | --- | --- | --- | --- | --- | --- | --- |
| [Mpa]INYQCP[Orn]([dD-PEG5′-εdLys-Cy3s])G (disulfide 1-6 (inferred)) [scrambled cyclic tracer dCINYQCP(Orn)G‐[d‐PEG5‐k^ε‐Cy3s]^8] | > 10000 | > 10000 | > 10000 | > 10000 | > 10000 | > 10000 | > 10000 |
| [Mpa]YIQNCP[Orn]G (disulfide 1-6) [d(Orn)^8OT] | 0.7 | 0.4 | 0.8 | – | – | – | – |
| [Mpa]YIQNCP[Orn](Cy5s)G (disulfide 1-6) [d(Orn)^8OT‐[Cy5s]^8] | 0.9 | 23 | 86 | – | – | – | – |
| [Mpa]YIQNCP[Orn]([PEG5′-Cy5s])G (disulfide 1-6) [d(Orn)^8OT‐[PEG5‐Cy5s]^8] | 1.3 | 70 | 376 | – | – | – | – |
| [Mpa]YIQNCP[Orn]([PEG5′-Cy3s])G (disulfide 1-6) [d(Orn)^8OT‐[PEG5‐Cy3s]^8] | 1.5 | 80 | 372 | – | – | – | – |
| [Mpa]YIQNCP[Orn]([εdLys-εdLys-Cy3s])G (disulfide 1-6) [d(Orn)^8OT‐[k^ε‐k^ε‐Cy3s]^8] | 0.8 | 3.3 | 10 | – | – | – | – |
| [Mpa]YIQNCP[Orn]([PEG5′-εdLys-Cy5s])G (disulfide 1-6) [d(Orn)^8OT‐[PEG5‐k^ε‐Cy5s]^8] | 1.2 | 11 | 176 | – | – | – | – |
| [Mpa]YIQNCP[Orn]([PEG5′-εdLys-Cy3s])G (disulfide 1-6) [d(Orn)^8OT‐[PEG5‐k^ε‐Cy3s]^8] | 1.4 | 21 | 242 | – | – | – | – |
| [Mpa]YIQNCP[Orn]([PEG5′-PEG5′-εdLys-Cy3s])G (disulfide 1-6) [d(Orn)^8OT‐[PEG5‐PEG5‐k^ε‐Cy3s]^8] | 1.5 | 22 | 199 | – | – | – | – |
| [Mpa]YIQNCP[Orn]([dD-PEG5′-Cy5s])G (disulfide 1-6) [d(Orn)^8OT‐[d‐PEG5‐Cy5s]^8] | 6 | 553 | 1320 | – | – | – | – |
| [Mpa]YIQNCP[Orn]G (disulfide 1-6; not fully specified (residue 8)) [d(Orn)^8OT‐[d‐PEG5‐k^ε‐AF488]^8] | 22.6 | 1430 | 1800 | – | – | – | – |
| [Mpa]YIQNCP[Orn]([dD-PEG5′-εdLys-TAMRA])G (disulfide 1-6) [d(Orn)^8OT‐[d‐PEG5‐k^ε‐TAMRA]^8] | 7.5 | 631 | 932 | – | – | – | – |
| B1 | – | – | – | – | 1400 | 416 | 1570 |
| B2 | – | – | – | 8.1 | 1 | 0.4 | – |
